Measured values: publication PMC9926490, “Structural Basis for Cyclosporin Isoform-Specific Inhibition of Cyclophilins from Toxoplasma gondii” (ACS Infectious Diseases, 2023)

Substrate: C[C@H](NC(=O)CCC(=O)O)C(=O)N[C@@H](C)C(=O)N1CCC[C@H]1C(=O)N[C@@H](Cc1ccccc1)C(=O)Nc1ccc([N+](=O)[O-])cc1
Assay: purified protein, by the assay type
Type: biochemical, Toxoplasma gondii
Conditions: other: substrate AAPF, 0 °C, pH 8.0
Protocol: A trans-isomer is formed by Cyp, which is selectively cleaved by chymotrypsin, producing 4-nitroaniline, a yellow-colored product that can be measured spectrophotometrically.
The assay was performed in 50 mM Hepes, pH 8, and 100 mM NaCl at 0 °C. […] Once the temperature reached 0 °C, chymotrypsin solution, dissolved in HCl 1 mM, was added at 1.8 mg mL^–1 to start the reaction.
Successively, Cyp was added in large excess to enhance the cis-to-trans isomerization. The cis population was estimated by the difference between the final and the initial absorbance.
For all of the experiments, the slope of the catalyzed reaction was corrected for the spontaneous thermal cis–trans isomerization in the presence of the only chymotrypsin.
All measurements were repeated as triplicate, and the error was calculated as the mean standard error of the three measurements. The error associated with the parameter kcat/Km was propagated in agreement with the following equation eq 1 [drawing 1]

B1: TgCyp18.4 (Toxoplasma gondii VEG) (protein)
chain: MSVTIKTNLGDLKAELYCQQAPKTCKNFLALCASDYYNGTRFHRNIKGFAIQGGDPTGTGKGGESIYGGLFEDEFVSSLKHDRRGILSMANQGKPNTNGSQFFITYCRQPHLNGVYSVFGRLIDGMDTLDKMEREPVGRKNRPENDIIIEQVIIHANPIAEMDQL
Km: 286 ± 39 µM
kcat: 2.8 ± 0.4 s⁻¹
kcat/Km: 10000 ± 2000 M⁻¹ s⁻¹
